Data from article PMC2191135.

Molecular target: platelet membrane GPIIb-IIIa complex (alpha IIb/beta 3 integrin) (human (endogenous in platelets)) (UniProt P08514)
Assay: radioligand binding

Work on RGDS [arginine, glycine, aspartic acid (RGDS)] yielded a % inhibition of fibrinogen binding at 100 uM RGDS of 92%.
